The values below come from publication PMC8167854, “Transfer of stabilising mutations between different secondary active transporter families” (FEBS Open Bio, 2021).

This data set concerns the molecule itself. The data set is described as follows: SDS/PAGE of SEC fractions, bands identified by mass spectrometry; protein purified in 0.03% DDM, eluted from Superdex 200 10/300 in 20 mM Tris/HCl pH 7.5, 150 mM NaCl; fractions on a 12% Tris-Glycine SDS/PAGE gel; monomer and dimer bands.

B1: AtBOR1 M363F (natural protein)
chain: not shown
notes: BOR1 borate transporter of Arabidopsis thaliana with the point mutation M363F, made on the AtBOR1 WT gene; Expressed from pDDGFP-2 with a TEV-cleavable C-terminal yEGFP His-tag; tag removed with TEV protease before SEC; source: S. cerevisiae FGY217, purified in DDM (His-Trap, TEV cleavage, reverse IMAC, Superdex 200); not shown: yEGFP, C-terminal, cleaved; His-tag, C-terminal, cleaved
Regarding B1, the binding result is given as “binds”.

B2: Arabidopsis thaliana boron transporter 1 (AtBOR1), wild-type (natural protein)
chain: not shown
notes: BOR1 borate transporter of Arabidopsis thaliana (SLC4 family), full-length wild type; Expressed from pDDGFP-2 with a TEV-cleavable C-terminal yEGFP His-tag; also called WT AtBOR1; AtBOR1 WT; source: S. cerevisiae FGY217, purified in DDM (His-Trap, TEV cleavage, reverse IMAC, Superdex 200); not shown: yEGFP, C-terminal, cleaved; His-tag, C-terminal, cleaved
B2: the binding result is on record as “binds”.

B3: AtBOR1 M363Y (natural protein)
chain: not shown
notes: BOR1 borate transporter of Arabidopsis thaliana with the point mutation M363Y, made on the AtBOR1 WT gene; Expressed from pDDGFP-2 with a TEV-cleavable C-terminal yEGFP His-tag; tag removed with TEV protease before SEC; source: S. cerevisiae FGY217, purified in DDM (His-Trap, TEV cleavage, reverse IMAC, Superdex 200); not shown: yEGFP, C-terminal, cleaved; His-tag, C-terminal, cleaved
Regarding B3, the binding result is on record as “binds”.
